# In IntAct's records for PubMed 18388957:
# B1: Inhibitor of growth protein 1 (Homo sapiens), Q9UK53-2 (parent)
# chain: MLSPANGEQLHLVNYVEDYLDSIESLPFDLQRNVSLMREIDAKYQEILKELDECYERFSRETDGAQKRRMLHCVQRALIRSQELGDEKIQIVSQMVELVENRTRQVDSHVELFEAQQELGDTAGNSGKAGADRPKGEAAAQADKPNSKRSRRQRNNENRENASSNHDHDDGASGTPKEKKAKTSKKKKRSKAKAEREASPADLPIDPNEPTYCLCNQVSYGEMIGCDNDECPIEWFHFSCVGLNHKPKGKWYCPKCRGENEKTMDKALEKSKKERAYNR
# Variants of: B1
# Conditions: with nqo1_human NQO1, P15559
row,effect of a mutation on the interaction,Variant
1,disrupting interaction,S126A
